Reference: patent publication US20230212306A1 (Daiichi Sankyo, published 2023)

Target: T1, rat TLR7-Flag, expressed in HEK293 cells (rat, UniProt P58681 27-1050 (mouse entry))
T1 construct: not shown: Flag tag
T1 chain: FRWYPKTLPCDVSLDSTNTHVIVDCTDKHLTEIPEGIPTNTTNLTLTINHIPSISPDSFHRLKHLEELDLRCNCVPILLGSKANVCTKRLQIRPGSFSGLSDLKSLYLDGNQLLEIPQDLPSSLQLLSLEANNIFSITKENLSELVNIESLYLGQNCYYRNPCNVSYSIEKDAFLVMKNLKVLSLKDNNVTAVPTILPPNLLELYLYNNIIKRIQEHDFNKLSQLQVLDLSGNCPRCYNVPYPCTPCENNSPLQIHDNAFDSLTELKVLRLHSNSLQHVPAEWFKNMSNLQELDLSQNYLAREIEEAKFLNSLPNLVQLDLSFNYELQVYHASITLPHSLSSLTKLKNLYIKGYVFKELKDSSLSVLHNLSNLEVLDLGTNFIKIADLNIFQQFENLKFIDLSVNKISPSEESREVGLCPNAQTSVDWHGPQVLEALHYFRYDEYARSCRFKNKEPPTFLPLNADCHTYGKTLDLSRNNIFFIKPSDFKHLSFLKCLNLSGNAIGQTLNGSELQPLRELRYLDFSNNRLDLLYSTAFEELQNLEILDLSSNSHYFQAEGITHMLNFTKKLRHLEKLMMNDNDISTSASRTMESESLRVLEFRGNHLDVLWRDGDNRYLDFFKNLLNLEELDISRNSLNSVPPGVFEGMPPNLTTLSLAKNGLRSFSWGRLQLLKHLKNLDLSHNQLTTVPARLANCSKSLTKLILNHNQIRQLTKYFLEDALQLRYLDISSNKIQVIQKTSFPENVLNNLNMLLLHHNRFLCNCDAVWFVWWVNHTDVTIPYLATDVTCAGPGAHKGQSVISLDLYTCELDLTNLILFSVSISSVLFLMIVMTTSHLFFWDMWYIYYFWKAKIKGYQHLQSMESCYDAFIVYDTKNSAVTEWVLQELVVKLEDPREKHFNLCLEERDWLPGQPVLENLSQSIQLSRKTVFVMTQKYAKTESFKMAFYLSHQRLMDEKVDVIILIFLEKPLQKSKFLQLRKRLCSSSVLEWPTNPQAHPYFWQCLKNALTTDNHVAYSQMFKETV
Assay: flow cytometry on fixed and permeabilised HEK293 cells expressing rat TLR7-Flag
From the text: The HEK293 cells expressing human TLR7 (variant 1)-Flag prepared in 8)-1, the HEK293 cells expressing human TLR7 (variant 2)-Flag prepared in 8)-2, the HEK293 cells expressing monkey TLR7-Flag prepared in 8)-3, the HEK293 cells expressing mouse TLR7-Flag prepared in 8)-4, and the HEK293 cells expressing rat TLR7-Flag prepared in 8)-5 were immobilized/subjected to membrane permeation with a Fixation and Permeabilization Solution (Becton, Dickinson and Company) and thereafter stained using huAT01_H3L2_IgG1LALA, which is one of the humanized anti-human TLR7 antibodies, and ALEXA FLUOR® 647 AffiniPure Goat anti-human IgG+IgM (H+L) (Jackson ImmunoResearch Inc.), which is the secondary antibody.
The binding of the humanized anti-human TLR7 antibody to human TLR7 was detected based on flow cytometry (Miltenyi Biotec K.K.), and the data was analyzed using software (Flowjo) which analyzes the data of flow cytometry.

binding result: no binding
B1: huAT01_H3L2_IgG1LALA antibody (antibody, V domains shown)
VH: QVQLVQSGAEVKKPGASVKVSCKASGYTFTNNWLHWVRQAPGQGLEWMGDIYPSNGRTNYAQKFQGRVTLTVDKSTSTAYMELSSLRSEDTAVYFCARERGYFDYWGQGTLVTVSS
VL: DIQMTQSPSSLSASVGDRVTITCKASQDINKYIAWYQQKPGKAPKLLIHYTSTLQPGIPSRFSGSGSGRDYTLTISSLQPEDFATYYCLQYDYLLTFGQGTKVEIKR
notes: Humanized AT01; heavy huAT01_H3_IgG1LALA, light huAT01_L2
